Assays:
[1] = molecular target: T1, CD28 on primary human T cells (human, UniProt P10747 19-220); assay: cell-based or functional assay
[2] = molecular target: T2, Recombinant human/cynomolgus/rhesus macaque CD28 mouse IgG2a Fc fusion protein (Acro Biosystems) (human/cynomolgus/rhesus macaque, UniProt P10747 19-152); assay: SPR Biacore T200, CD28-mIgG2a Fc on CM5, construct injected, 1:1 model;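 note: fc fusion captured by amine coupling, run at 25 °C in HEPES buffer pH 7.4, association 140-500 s then dissociation 600-1200 s, values averaged over three independent runs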
T2 construct: bought; also called huCD28

[3] = molecular target: T1, CD28 on primary human T cells; assay: cell-based or functional assay; remark: listed apart in the source
[4] = molecular target: T1, CD28 on primary human T cells; assay: cell-based or functional assay; remark: listed apart in the source
Human CLDN18.2 = molecular target: T3, Human CLDN18.2 (human); assay: flow cytometry, SNU 601 cells
T3 construct: on transfected HEK293-6E cells or native on SNU 601 cells

[5] = molecular target: T4, Recombinant human CD3 epsilon/delta heterodimer, his tag protein (Acro Biosystems) (human, UniProt P07766 23-126; P04234 22-105); assay: SPR Biacore T200, CD3 e/d-his on CM5, construct injected, 1:1 model;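 note: measured at 25 °C in HEPES-buffered saline with EDTA and Tween 20 at pH 7.4, values are means of three independent runs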
T4 construct: bought

[6] = molecular target: T2, Recombinant human/cynomolgus/rhesus …; assay: SPR, in-format anti-CD28 variants, huCD28

| Binder | IFNg mean cytokine, T cells alone, 45 nM construct [1] [pg/mL] | IL-2 mean cytokine, T cells alone, 45 nM construct [1] [pg/mL] | IC50, TDCC on SNU 601-RFP, 1:5 E:T [3] [nM] | IC50, TDCC on SNU 601-RFP, 2:1 E:T [3] [nM] | IFNg EC50, T cells + SNU 601 [4] [nM] | IFNg maximum cytokine, T cells + SNU 601 [4] [pg/mL] | IL-2 EC50, T cells + SNU 601 [4] [nM] | IL-2 maximum cytokine, T cells + SNU 601 [4] [pg/mL] | Fold-change from WT [6] [fold] | Kd [6] [nM] | koff [6] [s⁻¹] | kon [6] [M⁻¹ s⁻¹] | Maximum Mean Cytotoxicity (%), 1:5 E:T [3] [%] | Maximum Mean Cytotoxicity (%), 2:1 E:T [3] [%] | other results |
| --- | --- | --- | --- | --- | --- | --- | --- | --- | --- | --- | --- | --- | --- | --- | --- |
| v37642 (trispecific antibody, human IgG1, kappa, L234A L235A, also called Cldn18.2xCD28xCD3 trispecific) heavy 1: not shown heavy 2: EVQLVESGGGLVQPGGSLRLSCAASGVTFNYYGMSWIRQAPGKGLEWVASITSSGGRIYYPDSVKGRFTISRENTQKTLYLQMNSLRAEDTAVYYCTLDGRDGWVAYWGQGTLVTVSSGGGGSGGGGSGGGGSGGGGSNFMLTQPHSVSESPGKTVTISCKRNTGNIGSNYVNWYQQHEGSSPTTIIYRNDKRPDGVSDRFSGSIDRSSKSASLTISNLKTEDEADYFCQSYSSGFIFGGGTKLTVLAAEPKSSDKTHTCPPCPAPEAAGGPSVFLFPPKPKDTLMISRTPEVTCVVVSVSHEDPEVKFNWYVDGVEVHNAKTKPREEQYNSTYRVVSVLTVLHQDWLNGKEYKCKVSNKALPAPIEKTISKAKGQPREPQVYVLPPSRDELTKNQVSLLCLVKGFYPSDIAVEWESNGQPENNYLTWPPVLDSDGSFFLYSKLTVDKSRWQQGNVFSCSVMHEALHNHYTQKSLSLSPG light: DIQMTQSPSSLSASVGDRVTITCRASESVEYYVTSLMQWYQQKPGKAPKLLIYAASNVDSGVPSRFSGSGSGTDFTLTISSLQPEDIATYYCQQSRKVPFTFGGGTKVEIKRTVAAPSVFIFPPSDEQLKSGTASVVCLLNNFYPREAKVQWKVDNALQSGNSQESVTEQDSKDSTYSLSSTLTLSKADYEKHKVYACEVTHQGLSSPVTKSFNRGEC | 857 | 2930 | 0.0023 | 0.000166 | 0.00367 | 3040 | 0.00267 | 5060 | 1 | 42.3 | 0.00286 | 70400 | 96.9 | 98.7 | Kd [2]: 20.2 nM; koff [2]: 0.00198 s⁻¹; kon [2]: 98200 M⁻¹ s⁻¹; Bmax (Human CLDN18.2): 9310 MFI; EC50 (Human CLDN18.2): 24.1 nM; Kd [5]: 62 nM; koff [5]: 0.0117 s⁻¹; kon [5]: 189000 M⁻¹ s⁻¹ |
| v38992 (trispecific antibody, human IgG1, kappa, L234A L235A, also called v37642 format, CD28 VH G1064S) heavy 1: not shown heavy 2: EVQLVESGGGLVQPGGSLRLSCAASGVTFNYYGMSWIRQAPGKGLEWVASITSSGGRIYYPDSVKGRFTISRENTQKTLYLQMNSLRAEDTAVYYCTLDGRDGWVAYWGQGTLVTVSSGGGGSGGGGSGGGGSGGGGSNFMLTQPHSVSESPGKTVTISCKRNTGNIGSNYVNWYQQHEGSSPTTIIYRNDKRPDGVSDRFSGSIDRSSKSASLTISNLKTEDEADYFCQSYSSGFIFGGGTKLTVLAAEPKSSDKTHTCPPCPAPEAAGGPSVFLFPPKPKDTLMISRTPEVTCVVVSVSHEDPEVKFNWYVDGVEVHNAKTKPREEQYNSTYRVVSVLTVLHQDWLNGKEYKCKVSNKALPAPIEKTISKAKGQPREPQVYVLPPSRDELTKNQVSLLCLVKGFYPSDIAVEWESNGQPENNYLTWPPVLDSDGSFFLYSKLTVDKSRWQQGNVFSCSVMHEALHNHYTQKSLSLSPG light: DIQMTQSPSSLSASVGDRVTITCRASESVEYYVTSLMQWYQQKPGKAPKLLIYAASNVDSGVPSRFSGSGSGTDFTLTISSLQPEDIATYYCQQSRKVPFTFGGGTKVEIKRTVAAPSVFIFPPSDEQLKSGTASVVCLLNNFYPREAKVQWKVDNALQSGNSQESVTEQDSKDSTYSLSSTLTLSKADYEKHKVYACEVTHQGLSSPVTKSFNRGEC | 559 | 1690 | – | – | 0.023 | 3990 | 0.00916 | 5560 | 3.1 | 130 | 0.00738 | 59800 | – | – | – |
| v38990 (trispecific antibody, human IgG1, kappa, L234A L235A, also called v37642 format, CD28 VH Y1113S) heavy 1: not shown heavy 2: EVQLVESGGGLVQPGGSLRLSCAASGVTFNYYGMSWIRQAPGKGLEWVASITSSGGRIYYPDSVKGRFTISRENTQKTLYLQMNSLRAEDTAVYYCTLDGRDGWVAYWGQGTLVTVSSGGGGSGGGGSGGGGSGGGGSNFMLTQPHSVSESPGKTVTISCKRNTGNIGSNYVNWYQQHEGSSPTTIIYRNDKRPDGVSDRFSGSIDRSSKSASLTISNLKTEDEADYFCQSYSSGFIFGGGTKLTVLAAEPKSSDKTHTCPPCPAPEAAGGPSVFLFPPKPKDTLMISRTPEVTCVVVSVSHEDPEVKFNWYVDGVEVHNAKTKPREEQYNSTYRVVSVLTVLHQDWLNGKEYKCKVSNKALPAPIEKTISKAKGQPREPQVYVLPPSRDELTKNQVSLLCLVKGFYPSDIAVEWESNGQPENNYLTWPPVLDSDGSFFLYSKLTVDKSRWQQGNVFSCSVMHEALHNHYTQKSLSLSPG light: DIQMTQSPSSLSASVGDRVTITCRASESVEYYVTSLMQWYQQKPGKAPKLLIYAASNVDSGVPSRFSGSGSGTDFTLTISSLQPEDIATYYCQQSRKVPFTFGGGTKVEIKRTVAAPSVFIFPPSDEQLKSGTASVVCLLNNFYPREAKVQWKVDNALQSGNSQESVTEQDSKDSTYSLSSTLTLSKADYEKHKVYACEVTHQGLSSPVTKSFNRGEC | 0.9 | 1.8 | 0.145 | 0.00358 | 0.604 | 3290 | 1.56 | 5240 | 225 | 9510 | – | – | 95.4 | 97.8 | – |

The next lines start with results.

| IFNg mean cytokine, T cells alone, 45 nM construct [1] [pg/mL] | IL-2 mean cytokine, T cells alone, 45 nM construct [1] [pg/mL] | IC50, TDCC on SNU 601-RFP, 1:5 E:T [3] [nM] | IC50, TDCC on SNU 601-RFP, 2:1 E:T [3] [nM] | IFNg EC50, T cells + SNU 601 [4] [nM] | IFNg maximum cytokine, T cells + SNU 601 [4] [pg/mL] | IL-2 EC50, T cells + SNU 601 [4] [nM] | IL-2 maximum cytokine, T cells + SNU 601 [4] [pg/mL] | Fold-change from WT [6] [fold] | Kd [6] [nM] | koff [6] [s⁻¹] | kon [6] [M⁻¹ s⁻¹] | Binder | Maximum Mean Cytotoxicity (%), 1:5 E:T [3] [%] | Maximum Mean Cytotoxicity (%), 2:1 E:T [3] [%] | other results |
| --- | --- | --- | --- | --- | --- | --- | --- | --- | --- | --- | --- | --- | --- | --- | --- |
| 15.4 | 26.5 | 0.0127 | 0.000838 | 0.0909 | 6150 | 0.0222 | 9620 | 6.1 | 257 | 0.0145 | 62900 | v38991 (trispecific antibody, human IgG1, kappa, L234A L235A, also called v37642 format, CD28 VH N1111aA) heavy 1: not shown heavy 2: EVQLVESGGGLVQPGGSLRLSCAASGVTFNYYGMSWIRQAPGKGLEWVASITSSGGRIYYPDSVKGRFTISRENTQKTLYLQMNSLRAEDTAVYYCTLDGRDGWVAYWGQGTLVTVSSGGGGSGGGGSGGGGSGGGGSNFMLTQPHSVSESPGKTVTISCKRNTGNIGSNYVNWYQQHEGSSPTTIIYRNDKRPDGVSDRFSGSIDRSSKSASLTISNLKTEDEADYFCQSYSSGFIFGGGTKLTVLAAEPKSSDKTHTCPPCPAPEAAGGPSVFLFPPKPKDTLMISRTPEVTCVVVSVSHEDPEVKFNWYVDGVEVHNAKTKPREEQYNSTYRVVSVLTVLHQDWLNGKEYKCKVSNKALPAPIEKTISKAKGQPREPQVYVLPPSRDELTKNQVSLLCLVKGFYPSDIAVEWESNGQPENNYLTWPPVLDSDGSFFLYSKLTVDKSRWQQGNVFSCSVMHEALHNHYTQKSLSLSPG light: DIQMTQSPSSLSASVGDRVTITCRASESVEYYVTSLMQWYQQKPGKAPKLLIYAASNVDSGVPSRFSGSGSGTDFTLTISSLQPEDIATYYCQQSRKVPFTFGGGTKVEIKRTVAAPSVFIFPPSDEQLKSGTASVVCLLNNFYPREAKVQWKVDNALQSGNSQESVTEQDSKDSTYSLSSTLTLSKADYEKHKVYACEVTHQGLSSPVTKSFNRGEC | 95.6 | 98.2 | – |
| 475 | 1520 | – | – | 0.0793 | 4450 | 0.0287 | 8410 | 3.4 | 144 | 0.00817 | 59000 | v38993 (trispecific antibody, human IgG1, kappa, L234A L235A, also called v37642 format, CD28 VH L1112aN) heavy 1: not shown heavy 2: EVQLVESGGGLVQPGGSLRLSCAASGVTFNYYGMSWIRQAPGKGLEWVASITSSGGRIYYPDSVKGRFTISRENTQKTLYLQMNSLRAEDTAVYYCTLDGRDGWVAYWGQGTLVTVSSGGGGSGGGGSGGGGSGGGGSNFMLTQPHSVSESPGKTVTISCKRNTGNIGSNYVNWYQQHEGSSPTTIIYRNDKRPDGVSDRFSGSIDRSSKSASLTISNLKTEDEADYFCQSYSSGFIFGGGTKLTVLAAEPKSSDKTHTCPPCPAPEAAGGPSVFLFPPKPKDTLMISRTPEVTCVVVSVSHEDPEVKFNWYVDGVEVHNAKTKPREEQYNSTYRVVSVLTVLHQDWLNGKEYKCKVSNKALPAPIEKTISKAKGQPREPQVYVLPPSRDELTKNQVSLLCLVKGFYPSDIAVEWESNGQPENNYLTWPPVLDSDGSFFLYSKLTVDKSRWQQGNVFSCSVMHEALHNHYTQKSLSLSPG light: DIQMTQSPSSLSASVGDRVTITCRASESVEYYVTSLMQWYQQKPGKAPKLLIYAASNVDSGVPSRFSGSGSGTDFTLTISSLQPEDIATYYCQQSRKVPFTFGGGTKVEIKRTVAAPSVFIFPPSDEQLKSGTASVVCLLNNFYPREAKVQWKVDNALQSGNSQESVTEQDSKDSTYSLSSTLTLSKADYEKHKVYACEVTHQGLSSPVTKSFNRGEC | – | – | – |

From patent US20260028403A1 (Zymeworks, published 2026)
